Data: PMC5552905, “Mechanisms of peptide sex pheromone regulation of conjugation in Enterococcus faecalis” (MicrobiologyOpen, 2017)

B4: His-tagged PrgX (natural protein, Enterococcus faecalis (plasmid pCF10), UniProt Q04114 1-317, looked up)
chain: MFKIGSVLKQIRQELNYHQIDLYSGIMSKSVYIKVEADSRPISVEELSKFSERLGVNFFEILNRAGMNTKSVNETGKEKLLISKIFTNPDLFDKNFQRIEPKRLTSLQYFSIYLGYISIAHHYNIEVPTFNKTITSDLKHLYDKRTTFFGIDYEIVSNLLNVLPYEEVSSIIKPMYPIVDSFGKDYDLTIQTVLKNALTISIMNRNLKEAQYYINQFEHLKTIKNISINGYYDLEINYLKQIYQFLTDKNIDSYLNAVNIINIFKIIGKEDIHRSLVEELTKISAKEKFTPPKEVTMYYENYVAIENNPIPEIKEQS
notes: PrgX, master transcription regulator and sex pheromone receptor encoded by the Enterococcus faecalis plasmid pCF10; also called HisPrgX; Apo-PrgX

Experiments:
[1] = target: B4; assay: SPR; settings: both partners purified
[2] = target: T1, PrgX (Enterococcus faecalis (plasmid pCF10), UniProt Q04114 1-317); assay: EMSA; apo (DMF); single shifted band; EMSA: 20 mM Tris-HCl pH 7.9, 0.1 M NaCl, 0.1 mM EDTA, 10% glycerol, 10 mM MgCl2, 1 ug poly-[d(A-T)], 0.1 ug poly-L-lysine, 20 ul, room temperature 15 min, 8 fmol DIG-labelled probe; settings: protein: recombinant; tags: GST removed with PreScission (pGEX6p-1); chain copies: 2; label: 3' DIG-11-ddUTP; blunt
T1 sequence: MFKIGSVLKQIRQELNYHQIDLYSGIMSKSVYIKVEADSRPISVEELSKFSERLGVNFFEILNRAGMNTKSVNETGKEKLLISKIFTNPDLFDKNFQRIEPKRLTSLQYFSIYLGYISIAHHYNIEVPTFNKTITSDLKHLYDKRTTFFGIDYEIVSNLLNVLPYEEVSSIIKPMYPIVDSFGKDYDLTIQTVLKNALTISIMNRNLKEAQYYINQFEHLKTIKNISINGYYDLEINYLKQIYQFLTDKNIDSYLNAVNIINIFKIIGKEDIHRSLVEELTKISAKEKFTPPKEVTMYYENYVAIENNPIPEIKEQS

[3] = target: the molecule itself; assay: SEC; Superdex 200 Hiload 16/600, 20 mmol/L Tris-HCl pH 8.0, 300 mmol/L NaCl; affinity purified HisPrgX, HisPrgX-C or HisPrgX-I loaded; calibrated with gel-filtration standards; no DNA
[4] = system: LT DNA (XBS1 and XBS2 operator sites), P Q promoter region; type: binding, Enterococcus faecalis (plasmid pCF10); settings: for supershift of LT DNA by purified tetramers: SEC-purified PrgX-C or PrgX-I tetramers, LT probe containing both XBSs
From the text: The LT DNA template containing XBS1 and XBS2 sites (LT DNA, pCF10 sequence from nt 8029 to nt8185 (Hirt et al., 2005)) was PCR amplified from pCF10 using primers as described in. The XBS1 DNA template only has XBS1 site (pCF10 sequence 8029–8131nt) was made by annealing oligos ‐129/‐47‐F (5′[…] 3′) and −129/−47R (5′[…] 3′) to obtain double‐stranded DNA. The XBS2 DNA template only has the XBS2 site (pCF10 sequence from 8109 to 8290; −66 to +114 relative to the prgQ transcription initiation site), and was PCR amplified from pCF10 using primers as described in Caserta et al., 2012. In DNA templates with 5‐bp or 10‐bp insertions, sequence GTACC or […] was inserted between XBS1 and XBS2 sites and at a position of 6‐bp after the XBS1 site. DNA probes were labeled at the 3′‐ends with DIG‐11‐ddUTP using the DIG Gel Shift kit (Roche) by following the manufacturer's instructions. EMSA assays were performed in 20 μl reactions: DIG‐labeled DNA, purified proteins, 1 μg of poly‐[d(A‐T)], 0.1 μg of poly‐L‐lysine, 1 × reaction buffer (20 mmol L^−1 Tris‐HCl, pH 7.9, 0.1 mol L^−1 NaCl, 0.1 mmol L^−1 EDTA, 10% glycerol, 0.01 mol L^−1 MgCl2). The reactions were incubated at room temperature for 15 min and loaded onto 5% polyacrylamide gels in 1 × TBE buffer (Tris, Borate, EDTA, pH 7.9). After electrophoresis at 100 V for 1.5 h, the DNA–protein complexes and DNA probes were electrotransferred onto a nylon membrane (Roche) at 6 V for 2 h using the GENIE electrophoretic blotter (Idea Scientific). DIG‐labeled DNA fragments were visualized by an enzyme immunoassay (DIG Gel Shift Kit, Roche) following the manufacturer's instructions. […] For the experiments reported here the powdered form of the peptides were initially solubilized in pure DMF at 0.5 mg/ml, and then diluted 10‐fold in KPBS for use as a working stock solution, which was diluted into the EMSA reactions to a final peptide concentration of 40 nmol L^−1.
EMSA assays were performed using 8 fmol of digoxigenin‐labeled LT DNA probes with increasing amounts of PrgX protein. PrgX was preincubated for 5‐min at room temperature with 40 nmol L^−1 of C (a) or I (b) before adding LT DNA. PrgX concentrations: lanes 2 and 6: 38 nmol L^−1; lanes 3 and 7: 76 nmol L^−1; lanes 4 and 8: 190 nmol L^−1; lanes 5 and 9: 568 nmol L^−1. (c) Cartoon showing the predicted products formed by binding PrgX to LT DNA.

B1: cCF10 (C, clumping-inducing peptide, sex pheromone) (peptide)
peptide: LVTLVFV
notes: source: synthetic peptide, bought: New England Peptides
With B1 the Kd [1] was 0.686 pM and the koff [1] was 5.5e-05 s⁻¹.

B2: iCF10 (I, inhibitor peptide) (peptide)
peptide: AITLIFI
notes: as for B1
Molecule B2 has a Kd [1] of 0.152 pM and a koff [1] of 2.09e-05 s⁻¹.

B3: XBS1 DNA (dsDNA)
DNA 1: TGTTAATATTTTAATTTTAGGTATTGAATACGACACTCGAAGATGTGTTTATTAAGCTATATCCCTTTTTTTTAAAAAAAAATA
DNA 2: TATTTTTTTTTAAAAAAAAGGGATATAGCTTAATAAACACATCTTCGAGTGTCGTATTCAATACCTAAAATTAAAATATTAACA
B3: binds [2].

B4 was tested, and the “stoichiometry N” value [3] was 2.

B5: HisPrgX-C complex (complex)
chain 1: MFKIGSVLKQIRQELNYHQIDLYSGIMSKSVYIKVEADSRPISVEELSKFSERLGVNFFEILNRAGMNTKSVNETGKEKLLISKIFTNPDLFDKNFQRIEPKRLTSLQYFSIYLGYISIAHHYNIEVPTFNKTITSDLKHLYDKRTTFFGIDYEIVSNLLNVLPYEEVSSIIKPMYPIVDSFGKDYDLTIQTVLKNALTISIMNRNLKEAQYYINQFEHLKTIKNISINGYYDLEINYLKQIYQFLTDKNIDSYLNAVNIINIFKIIGKEDIHRSLVEELTKISAKEKFTPPKEVTMYYENYVAIENNPIPEIKEQS
chain 2: LVTLVFV
notes: copies: 4 +
B5 was tested, and the “stoichiometry N” value [3] was 4.

B6: HisPrgX-I complex (complex)
chain 1: MFKIGSVLKQIRQELNYHQIDLYSGIMSKSVYIKVEADSRPISVEELSKFSERLGVNFFEILNRAGMNTKSVNETGKEKLLISKIFTNPDLFDKNFQRIEPKRLTSLQYFSIYLGYISIAHHYNIEVPTFNKTITSDLKHLYDKRTTFFGIDYEIVSNLLNVLPYEEVSSIIKPMYPIVDSFGKDYDLTIQTVLKNALTISIMNRNLKEAQYYINQFEHLKTIKNISINGYYDLEINYLKQIYQFLTDKNIDSYLNAVNIINIFKIIGKEDIHRSLVEELTKISAKEKFTPPKEVTMYYENYVAIENNPIPEIKEQS
chain 2: AITLIFI
notes: copies: 4 +
With B6 the “stoichiometry N” value [3] was 4.

B7: PrgX‐I: PrgX/iCF10 complex (tetramer), purified by nickel affinity and size exclusion chromatography (protein)
chain 1: MFKIGSVLKQIRQELNYHQIDLYSGIMSKSVYIKVEADSRPISVEELSKFSERLGVNFFEILNRAGMNTKSVNETGKEKLLISKIFTNPDLFDKNFQRIEPKRLTSLQYFSIYLGYISIAHHYNIEVPTFNKTITSDLKHLYDKRTTFFGIDYEIVSNLLNVLPYEEVSSIIKPMYPIVDSFGKDYDLTIQTVLKNALTISIMNRNLKEAQYYINQFEHLKTIKNISINGYYDLEINYLKQIYQFLTDKNIDSYLNAVNIINIFKIIGKEDIHRSLVEELTKISAKEKFTPPKEVTMYYENYVAIENNPIPEIKEQS
chain 2: AITLIFI
modifications: left off: His tag, end not stated, kept
B7 was tested, and the “relative protein concentration for supershift / singly shifted probe” value [4] was “complete supershifting at slightly lower protein concentrations than PrgX/C” and the “supershift of LT DNA by purified tetramers” value [4] was “nearly complete supershift to band II at extremely low PrgX concentrations”.

B8: PrgX‐C: PrgX/cCF10 complex (tetramer), purified by nickel affinity and size exclusion chromatography (protein)
chain 1: MFKIGSVLKQIRQELNYHQIDLYSGIMSKSVYIKVEADSRPISVEELSKFSERLGVNFFEILNRAGMNTKSVNETGKEKLLISKIFTNPDLFDKNFQRIEPKRLTSLQYFSIYLGYISIAHHYNIEVPTFNKTITSDLKHLYDKRTTFFGIDYEIVSNLLNVLPYEEVSSIIKPMYPIVDSFGKDYDLTIQTVLKNALTISIMNRNLKEAQYYINQFEHLKTIKNISINGYYDLEINYLKQIYQFLTDKNIDSYLNAVNIINIFKIIGKEDIHRSLVEELTKISAKEKFTPPKEVTMYYENYVAIENNPIPEIKEQS
chain 2: LVTLVFV
modifications: left off: His tag, end not stated, kept
B8 was tested, and the “relative protein concentration for supershift / singly shifted probe” value [4] was “slightly more of the singly shifted probe is detected relative to PrgX/I complexes at equivalent protein concentrations” and the “supershift of LT DNA by purified tetramers” value [4] was “nearly complete supershift to band II at extremely low PrgX concentrations”.
